{
  "source": "paper PMC10315065",
  "about": "(Journal of Innate Immunity, 2023)",
  "molecules": {"B1": {"name": "IFNγ: recombinant mouse IFNγ (PeproTech #315-05) (protein, UniProt P01580 23-155, looked up)", "Interferon gamma": "HGTVIESLESLNNYFNSSGIDVEEKSLFLDIWRNWQKDGDMKILQSQIISFYLRLFEVLKDNQAISNNISVIESHLITTFFSNSKAKKDAFMSIAKFEVNNPQVQRQAFNELIRVVHQLLPESSLRKRKRSRC"}},
  "key": {"[1]": {"test_system": "cell surface GAPDH, THP-1", "format": "cell-based", "settings": "IFNγ; empty vector vs GAPDH knockdown; n = 3"}, "P2X7, THP-1": {"test_system": "P2X7, THP-1", "format": "cell-based", "settings": "IFNγ; empty vector vs GAPDH knockdown; n = 3"}, "cell surface GAPDH, J774": {"test_system": "cell surface GAPDH, J774", "format": "cell-based, mouse", "settings": "IFNγ 100 ng/mL, 24 h; n = 3"}, "GAPDH, J774": {"test_system": "GAPDH, J774", "assay": "GAPDH activity in cell lysate", "format": "cell-based, mouse"}},
  "data": [
    {"molecule": "B1", "values": [
      {"measurement": "GAPDH recruitment on the cell surface, WT and GAPDH K/D", "setting": "[1]", "value": "enhanced GAPDH recruitment on the cell surface of WT cells but failed to do so in GAPDH K/D cells"},
      {"measurement": "surface P2X7 expression", "setting": "P2X7, THP-1", "value": "surface expression of P2X7 continued to be elevated irrespective of GAPDH K/D"},
      {"measurement": "increase in cell surface GAPDH localization", "setting": "cell surface GAPDH, J774", "value": "~50", "unit": "%"},
      {"measurement": "GAPDH activity", "setting": "GAPDH, J774; IFNγ 100 ng/mL, 24 h", "value": "enhanced GAPDH activity"},
      {"measurement": "total cellular GAPDH", "setting": "GAPDH, J774; IFNγ treatment, Fig. 1i", "value": "significant increase in total cellular GAPDH"}
    ]}
  ]
}
